{"source": "paper PMC3698643", "about": "(Cell Research, 2013)", "binders": {"B1": {"name": "PR70 (122-490) fused to Cdc6 (70-90) via a flexible linker (other)", "chain": "SQSIPTFYFPRGRPQDSVNVDAVISKIESTFARFPHERATMDDMGLVAKACGCPLYWKGPLFYGAGGERTGSVSVHKFVAMWRKILQNCHDDAAKFVHLLMSPGCNYLVQEDFVPFLQDVVNTHPGLSFLKEASEFHSRYITTVIQRIFYAVNRSWSGRITCAELRRSSFLQNVALLEEEADINQLTEFFSYEHFYVIYCKFWELDTDHDLLIDADDLARHNDHALSTKMIDRIFSGAVTRGRKVQKEGKISYADFVWFLISEEDKKTPTSIEYWFRCMDLDGDGALSMFELEYFYEEQCRRLDSMAIEALPFQDCLCQMLDLVKPRTEGKITLQDLKRCKLANVFFDTFFNIEKYLDHEQKEQISLLRSTGNASDSSSDSSSSEGDGTVLPPCSPPKQGKKENGPPHSHT"}, "B2": {"name": "PR70 (108-519) (domain or fragment)", "chain": "VVQTRKEEPLPPATSQSIPTFYFPRGRPQDSVNVDAVISKIESTFARFPHERATMDDMGLVAKACGCPLYWKGPLFYGAGGERTGSVSVHKFVAMWRKILQNCHDDAAKFVHLLMSPGCNYLVQEDFVPFLQDVVNTHPGLSFLKEASEFHSRYITTVIQRIFYAVNRSWSGRITCAELRRSSFLQNVALLEEEADINQLTEFFSYEHFYVIYCKFWELDTDHDLLIDADDLARHNDHALSTKMIDRIFSGAVTRGRKVQKEGKISYADFVWFLISEEDKKTPTSIEYWFRCMDLDGDGALSMFELEYFYEEQCRRLDSMAIEALPFQDCLCQMLDLVKPRTEGKITLQDLKRCKLANVFFDTFFNIEKYLDHEQKEQISLLRDGDSGGPELSDWEKYAAEEYDILVAEETA"}, "B3": {"name": "PR70 (108-575), wild type (domain or fragment)", "chain": "VVQTRKEEPLPPATSQSIPTFYFPRGRPQDSVNVDAVISKIESTFARFPHERATMDDMGLVAKACGCPLYWKGPLFYGAGGERTGSVSVHKFVAMWRKILQNCHDDAAKFVHLLMSPGCNYLVQEDFVPFLQDVVNTHPGLSFLKEASEFHSRYITTVIQRIFYAVNRSWSGRITCAELRRSSFLQNVALLEEEADINQLTEFFSYEHFYVIYCKFWELDTDHDLLIDADDLARHNDHALSTKMIDRIFSGAVTRGRKVQKEGKISYADFVWFLISEEDKKTPTSIEYWFRCMDLDGDGALSMFELEYFYEEQCRRLDSMAIEALPFQDCLCQMLDLVKPRTEGKITLQDLKRCKLANVFFDTFFNIEKYLDHEQKEQISLLRDGDSGGPELSDWEKYAAEEYDILVAEETAGEPWEDGFEAELSPVEQKLSALRSPLAQRPFFEAPSPLGAVDLYEYACGDEDLEPL"}, "B4": {"name": "PR70 (108-575) F128A (domain or fragment)", "chain": "B3 chain with F21A"}, "B5": {"name": "PR70 (108-575) D443K (domain or fragment)", "chain": "B3 chain with D336K"}, "B6": {"name": "GST-Cdc6 (18-90) (domain or fragment)", "chain": "KLSRALNKAKNSSDAKLEPTNVQTVTCSPRVKALPLSPRKRLGDDNLCNTPHLPPCSPPKQGKKENGPPHSHT"}}, "key": {"[1]": {"target": "PP2A catalytic subunit Cα (1-309), methylated (UniProt P67775 1-309, fully methylated by LCMT-1 (residue not stated))", "sequence (P67775 whole entry)": "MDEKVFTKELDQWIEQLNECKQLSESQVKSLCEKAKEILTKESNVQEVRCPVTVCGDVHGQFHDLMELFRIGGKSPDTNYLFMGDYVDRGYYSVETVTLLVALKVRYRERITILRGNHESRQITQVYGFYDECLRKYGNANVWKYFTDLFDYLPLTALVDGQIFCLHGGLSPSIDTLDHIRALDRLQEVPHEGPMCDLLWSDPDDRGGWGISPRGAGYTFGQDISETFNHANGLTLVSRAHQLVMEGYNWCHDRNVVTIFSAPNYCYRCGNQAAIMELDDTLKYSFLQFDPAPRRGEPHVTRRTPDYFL", "experiment": "crystal structure"}, "[2]": {"target": "PP2A scaffold subunit Aα (9-589) (UniProt P30153 9-589)", "sequence (P30153 9-589)": "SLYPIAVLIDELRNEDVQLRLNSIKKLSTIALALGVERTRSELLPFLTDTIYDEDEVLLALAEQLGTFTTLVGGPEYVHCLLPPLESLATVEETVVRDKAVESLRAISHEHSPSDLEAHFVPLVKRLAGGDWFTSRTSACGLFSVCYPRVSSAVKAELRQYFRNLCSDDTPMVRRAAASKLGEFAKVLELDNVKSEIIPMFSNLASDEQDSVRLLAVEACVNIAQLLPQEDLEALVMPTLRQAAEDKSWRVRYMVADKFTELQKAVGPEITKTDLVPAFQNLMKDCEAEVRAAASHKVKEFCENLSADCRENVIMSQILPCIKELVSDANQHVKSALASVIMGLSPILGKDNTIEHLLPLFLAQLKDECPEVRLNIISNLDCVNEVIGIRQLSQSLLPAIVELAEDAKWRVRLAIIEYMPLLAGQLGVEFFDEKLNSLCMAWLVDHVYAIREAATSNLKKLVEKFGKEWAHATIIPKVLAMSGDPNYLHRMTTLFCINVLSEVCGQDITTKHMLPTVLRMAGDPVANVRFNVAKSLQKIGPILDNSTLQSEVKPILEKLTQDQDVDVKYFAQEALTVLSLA", "experiment": "crystal structure"}, "[3]": {"target": "PP2A core enzyme (Aα-Cα heterodimer) (UniProt P30153 9-589; P67775 1-309)", "sequence (P30153 9-589, chain 1 of 2)": "as the sequence (P30153 9-589) above", "sequence (P67775 whole entry, chain 2 of 2)": "as the sequence (P67775 whole entry) above", "experiment": "SEC"}, "[4]": {"target": "GST-tagged PP2A core enzyme (GST-A bound to PP2Ac) (UniProt P30153 9-589; P67775 1-309)", "sequence (P30153 9-589, chain 1 of 2)": "as the sequence (P30153 9-589) above", "sequence (P67775 whole entry, chain 2 of 2)": "as the sequence (P67775 whole entry) above", "experiment": "pull-down"}, "PR70 (108-575) D443K": {"target": "B5", "experiment": "pull-down"}, "[5]": {"target": "B3", "experiment": "pull-down"}, "PR70 (108-575) F128A": {"target": "B4", "experiment": "pull-down"}, "PR70 (108-575) R398D": {"target": "T1, PR70 (108-575) R398D (UniProt Q9Y5P8 108-575, R398D)", "T1 sequence": "B3 chain with R291D", "experiment": "pull-down"}, "[6]": {"target": "PP2A holoenzyme containing PR70 (108-519) (UniProt P30153 9-589; P67775 1-309; Q9Y5P8 108-519)", "sequence (P30153 9-589, chain 1 of 2)": "as the sequence (P30153 9-589) above", "sequence (P67775 whole entry, chain 2 of 2)": "as the sequence (P67775 whole entry) above", "experiment": "SEC"}}, "note": "Residue numbers refer to the chain shown, from its start. Names and notes keep the numbering of the source.", "data": [{"binder": "B1", "values": [{"measurement": "binding result", "setting": "[1]", "result": "binds"}, {"measurement": "binding result", "setting": "[2]", "result": "binds"}]}, {"binder": "B2", "values": [{"measurement": "binding result", "setting": "[3]", "result": "binds"}]}, {"binder": "B3", "values": [{"measurement": "binding result", "setting": "[4]", "result": "binds"}]}, {"binder": "B4", "values": [{"measurement": "fold reduction of binding affinity against wild-type PR70 (108-575)", "setting": "[4]", "result": "~4", "unit": "fold"}]}, {"binder": "B5", "values": [{"measurement": "fold reduction of binding affinity against wild-type PR70 (108-575)", "setting": "[4]", "result": "~2", "unit": "fold"}]}, {"binder": "B6", "values": [{"measurement": "binding result", "setting": "PR70 (108-575) D443K", "result": "binds"}, {"measurement": "binding result", "setting": "[5]", "result": "binds"}, {"measurement": "binding result", "setting": "PR70 (108-575) F128A", "result": "binds"}, {"measurement": "binding result", "setting": "PR70 (108-575) R398D", "result": "binds"}]}, {"binder": "KALPLSPRKRLGDDNLCNTPHLPPCSPPKQGKKENGPPHSHT (domain or fragment)", "note": "[GST-Cdc6 (49-90)]", "values": [{"measurement": "binding result", "setting": "[6]", "result": "binds"}]}]}
